Results as given in patent US20240043547A1 (NUMAB THERAPEUTICS, published 2024).
Positions count from the first letter of the chain named. Names and notes keep the numbering of the source. Like-named read-outs stand apart in the source and are kept apart here. One block for each binder: values may come before it.

Assays:
human IL-31 [1] = target: T1, human IL-31 (human, UniProt Q6EBC2 24-164, limits assumed); test: competitive ELISA: IL-31RA coated, biotinylated IL-31 preincubated with the antibody, bound IL-31 detected with streptavidin-HRP; blocked interaction IL-31/IL-31RA
T1 construct: also called hIL-31; recombinant human IL-31
T1 sequence (looked up): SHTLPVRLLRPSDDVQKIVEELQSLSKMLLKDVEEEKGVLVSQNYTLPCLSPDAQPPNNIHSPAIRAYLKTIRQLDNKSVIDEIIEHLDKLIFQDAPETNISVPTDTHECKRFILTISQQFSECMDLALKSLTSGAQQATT

human IL-31 [2] = target: T1, human IL-31; test: cell-based or functional assay
human IL-31 [3] = target: T1, human IL-31; test: cell-based or functional assay; remark: listed apart in the source
human IL-31 [4] = target: T1, human IL-31; test: cell-based or functional assay; remark: listed apart in the source
human IL-31 [5] = target: T1, human IL-31; test: competitive ELISA: IL-31RA coated, biotinylated IL-31 preincubated with the antibody, bound IL-31 detected with streptavidin-HRP; blocked interaction IL-31/IL-31RA; remark: listed apart in the source
human IL-31 [6] = target: T1, human IL-31; test: cell-based or functional assay; remark: listed apart in the source
human IL-31 [7] = target: T1, human IL-31; test: cell-based or functional assay; remark: listed apart in the source
human IL-31 [8] = target: T1, human IL-31; test: cell-based or functional assay; remark: listed apart in the source
human IL-31 [9] = target: T1, human IL-31; test: competitive ELISA: IL-31RA coated, biotinylated IL-31 preincubated with the antibody, bound IL-31 detected with streptavidin-HRP; blocked interaction IL-31/IL-31RA; remark: listed apart in the source
human IL-31-His [10] = target: T2, human IL-31-His (human, UniProt Q6EBC2 24-164); test: SPR (Biacore T200), human IL-31-His captured via anti-His antibody, scFv as analyte
T2 construct: form captured via anti-His tag antibody in the SPR of the scFvs (sections 1.8 and 2.4); also called hIL-31; not shown: His tag
T2 sequence (looked up): T1 sequence (looked up)
Protocol: (§1) After each analyte injection cycle the sensor chip was regenerated and new antigen was captured. The scFvs were measured using a dose response multi-cycle kinetic assay in a high-throughput mode with two concentrations (30 and 10 nM) diluted in running buffer. Obtained sensorgrams were fitted using a 1:1 binding model.

human IL-31 [11] = target: T1, human IL-31; test: competitive ELISA: IL-31RA coated, biotinylated IL-31 preincubated with scFv
Text: For this purpose, IL-31RA was coated on the ELISA plate.
Potency of the two humanized scFvs was further determined using a competitive ELISA.

human IL-31 [12] = target: T1, human IL-31; test: cell-based or functional assay; remark: listed apart in the source
cynomolgus IL-31-His [13] = target: T3, cynomolgus IL-31-His (cynomolgus monkey (Macaca fascicularis)); test: SPR (Biacore T200), cynomolgus IL-31-His captured via anti-His antibody, scFv as analyte
T3 construct: extracellular domain; also called cynomolgus monkey IL-31; cyno IL-31
Protocol: as §1
(§2) The scFvs were measured using a dose response multi-cycle kinetic assay in a high-throughput mode with two concentrations (30 and 10 nM) diluted in running buffer. Obtained sensorgrams were fitted using a 1:1 binding model.

cynomolgus IL-31-His [14] = target: T3, cynomolgus IL-31-His; test: as above; remark: listed apart in the source
Protocol: as §1

human IL-31 [15] = target: T1, human IL-31; test: cell-based or functional assay; remark: listed apart in the source
human IL-31-His [16] = target: T2, human IL-31-His; test: SPR (Biacore T200), human IL-31-His captured via anti-His antibody, scFv as analyte; remark: listed apart in the source
Protocol: as §1, §2

B2: PRO1643 (scFv)
scFv: AFQLTQSPSSLSASVGDRVTITCQASQSIDSWLAWYQQKPGKPPKLLIYQASKLASGVPSRFSGSGSGTDYTLTISSLQPEDFATYYCQTYYGGGHIGWGFGTGTKVTVLGGGGGSGGGGSGGGGSGGGGSQSQLVESGGGLVQPGGSLRLSCAASGFSFSANYWICWVRQAPGKGLEWIVCIYIGSRADTYYAPWAKGRFTISKDNSKNTVYLQMNSLRAEDTAVYFCARFSSGIYDLDRFFLWGQGTLVTVSS
notes: scFv (VL-linker-VH), full graft of rabbit clone 50-09-D07; also called 50-09-D07-sc03; 50-09-D07-5c03
Kd (human IL-31-His [10]): 0.505 nM | koff (human IL-31-His [10]): 0.000447 s⁻¹ | kon (human IL-31-His [10]): 884000 M⁻¹ s⁻¹ | IC50 (human IL-31 [11]): 4.58 ng/mL | IC50 [ng/ml], neutralization of hIL-31-induced signaling in IL-31RA/OSMR dimerization assay (human IL-31 [12]): 8.08 ng/mL | Kd (cynomolgus IL-31-His [13]): 1.17 nM | koff (cynomolgus IL-31-His [13]): 0.000587 s⁻¹ | kon (cynomolgus IL-31-His [13]): 501000 M⁻¹ s⁻¹ | Kd (cynomolgus IL-31-His [14]): 0.583 nM | koff (cynomolgus IL-31-His [14]): 0.000444 s⁻¹ | kon (cynomolgus IL-31-His [14]): 761000 M⁻¹ s⁻¹ | IC50 [ng/ml], neutralization of hIL-31-induced signaling in IL-31RA/OSMR dimerization assay (human IL-31 [15]): 11.1 ng/mL | Kd (human IL-31-His [16]): 1.13 nM | koff (human IL-31-His [16]): 0.000653 s⁻¹ | kon (human IL-31-His [16]): 579000 M⁻¹ s⁻¹

B4: PRO1902 (scFv)
scFv: B2 scFv with Y184S
notes: scFv (VL-linker-VH); variant of PRO1643 with VH Y59S (AHo numbering); also called 50-09-D07-sc06; 50-09-D07-5c06
Kd (human IL-31-His [16]): 2.89 nM | koff (human IL-31-His [16]): 0.00246 s⁻¹ | kon (human IL-31-His [16]): 852000 M⁻¹ s⁻¹

B6: PRO1903 (scFv)
scFv: B2 scFv with D30E
notes: scFv (VL-linker-VH); variant of PRO1643 with VL D32E (AHo numbering); also called 50-09-D07-sc07; 50-09-D07-5c07
Kd (human IL-31-His [16]): 1.22 nM | koff (human IL-31-His [16]): 0.000638 s⁻¹ | kon (human IL-31-His [16]): 524000 M⁻¹ s⁻¹

Second part, the binder after the results:

IC50 (read off the curve) (human IL-31 [1]): ~10 ng/mL | IC50 (read off the curve) (human IL-31 [2]): ~7 ng/mL | IC50 (read off the curve) (human IL-31 [3]): ~8 ng/mL | IC50 (read off the curve) (human IL-31 [4]): ~10 ng/mL | IC50 (read off the curve) (human IL-31 [5]): ~10 ng/mL | IC50 (read off the curve) (human IL-31 [6]): ~10 ng/mL | IC50 (read off the curve) (human IL-31 [7]): ~10 ng/mL | IC50 (read off the curve) (human IL-31 [8]): ~10 ng/mL | IC50 (read off the curve) (human IL-31 [9]): ~10 ng/mL
B1: BMS-981164 (antibody, V domains shown)
VH: QVQLVQSGAEVKKPGASVKVSCKASGYTLTRYWMQWVRQAPGQGLEWMGAIYPGDGDTRYSQKFQGRVTLTADKSTSTAYMELSSLRSEDTAVYYCAFPDGYYAAPYGMDYWGQGTLVTVSS
VL: DIQMTQSPSSLSASVGDRVTITCRASGNIHNYLAWYQQKPGKVPKLLIYNAKTLADGVPSRFSGSRSETQYSLTISSLQPEDVATYYCQHFWSTPWTFGQGTKVEIKR

Kd (human IL-31-His [16]): 0.956 nM | koff (human IL-31-His [16]): 0.000565 s⁻¹ | kon (human IL-31-His [16]): 591000 M⁻¹ s⁻¹
B3: PRO1901 (scFv)
scFv: B2 scFv with L142S, V226T, L250Q
notes: scFv (VL-linker-VH); variant of PRO1643 with VH L12S, V103T, L144Q (AHo numbering); also called 50-09-D07-sc05

IC50 [ng/ml], neutralization of hIL-31-induced signaling in IL-31RA/OSMR dimerization assay (human IL-31 [12]): 8.21 ng/mL | Kd (cynomolgus IL-31-His [13]): 1.07 nM | koff (cynomolgus IL-31-His [13]): 0.000594 s⁻¹ | kon (cynomolgus IL-31-His [13]): 554000 M⁻¹ s⁻¹ | Kd (human IL-31-His [16]): 0.907 nM | koff (human IL-31-His [16]): 0.000599 s⁻¹ | kon (human IL-31-His [16]): 661000 M⁻¹ s⁻¹
B5: PRO1900 (scFv)
scFv: B2 scFv with L142R, V226T, L250Q
notes: scFv (VL-linker-VH); variant of PRO1643 with VH L12R, V103T, L144Q (AHo numbering); also called 50-09-D07-sc04; 50-09-D07-5c04
